In paper PMC11544220:

Molecular target: Mycobacterium tuberculosis dUTPase lacking the mycobacteria-specific loop A133-S137 (MtDUT^Δloop) (Mycobacterium tuberculosis) (UniProt P9WNS5)
Assay: crystal structure

Mycobacterium tuberculosis dUTPase lacking the mycobacteria-specific loop A133-S137 (MtDUT^Δloop) (from UniProt P9WNS5 1-154) (enzyme)
stoichiometry N (subunits in the oligomer): 3
